The test deals with 70S ribosomes from E. coli MRE600 (vacant) (E. coli). Kind of test: stopped-flow Rayleigh light scattering (325 nm) of 70S dissociation; 70S ribosomes (0.05 uM) rapidly mixed with increasing GTPBP6 with 0.5 mM GTP, phosphoenol pyruvate and pyruvate kinase; 50 mM Tris-HCl pH 7.5, 70 mM NH4Cl, 30 mM KCl, 7 mM MgCl2, 37°C; kapp against GTPBP6 concentration, linear fit: slope = association, intercept = dissociation rate constant, Kd from their ratio.

The text below walks through data of PMC7736812.

B1: GTPBP6Δ43 (purified recombinant GTPBP6) (domain or fragment)
chain: PGNLEGPWGGGRGLRADGGRSRTGDDEEEPEDADENAEEELLRGEPLLPAGTQRVCLVHPDVKWGPGKSQMTRAEWQVAEATALVHTLDGWSVVQTMVVSTKTPDRKLIFGKGNFEHLTEKIRGSPDITCVFLNVERMAAPTKKELEAAWGVEVFDRFTVVLHIFRCNARTKEARLQVALAEMPLHRSNLKRDVAHLYRGVGSRYIMGSGESFMQLQQRLLREKEAKIRKALDRLRKKRHLLRRQRTRREFPVISVVGYTNCGKTTLIKALTGDAAIQPRDQLFATLDVTAHAGTLPSRMTVLYVDTIGFLSQLPHGLIESFSATLEDVAHSDLILHVRDVSHPEAELQKCSVLSTLRGLQLPAPLLDSMVEVHNKVDLVPGYSPTEPNVVPVSALRGHGLQELKAELDAAVLKATGRQILTLRVRLAGAQLSWLYKEATVQEVDVIPEDGAADVRVIISNSAYGKFRKLFPG
In general, Kd refers to the concentration at which binding is half-saturated. In general, koff refers to a measure of how fast the partners let go of each other. For orientation: kon means a measure of how fast the partners come together. Take B1: the Kd is 700 nM, the koff was found to be 0.09 s⁻¹ and the kon came to 130000 M⁻¹ s⁻¹.
